Consider three molecules from paper PMC9509318 (2022).

Broadly, the Kd is the equilibrium constant for the complex coming apart. A low value points to higher affinity. In general, koff refers to the rate constant with which the complex falls apart.

In experiment [1] the target is T1, Pfs48/45 full-length ectodomain (Plasmodium falciparum, UniProt Q8I6T1 27-427).
T1 chain: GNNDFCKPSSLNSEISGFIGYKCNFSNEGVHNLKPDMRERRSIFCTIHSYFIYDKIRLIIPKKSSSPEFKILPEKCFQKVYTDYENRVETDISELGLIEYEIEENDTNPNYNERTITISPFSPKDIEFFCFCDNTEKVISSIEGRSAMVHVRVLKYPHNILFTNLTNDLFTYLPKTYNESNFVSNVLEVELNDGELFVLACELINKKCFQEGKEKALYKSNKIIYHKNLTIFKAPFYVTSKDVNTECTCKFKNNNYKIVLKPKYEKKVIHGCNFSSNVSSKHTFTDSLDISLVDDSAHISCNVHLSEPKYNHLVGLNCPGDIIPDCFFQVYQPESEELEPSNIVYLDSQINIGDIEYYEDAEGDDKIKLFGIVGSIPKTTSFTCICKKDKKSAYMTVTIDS
As to the kind of experiment: SPR. Background: In SPR one partner is held on a chip, and binding of the other changes the refractive index at the surface.

Experiment [2] concerns the target T1, Pfs48/45 full-length ectodomain. As to the kind of experiment: SPR.

B1: 85RF45.1 monoclonal antibody (antibody, V domains shown)
VH: EVQLVESGGGLLQPGRSLKLSCVASGFTFNNYWMSWIRQAPGKGLEWIASISNIGGTIYYPDSVKGRFTISRDSAQNTLYLQMNSLRSEDTATYYCTRDLRMSDYFDYWGQGVMVTVSS
VL: QFVLSQPNSVSTNLGSTVKLSCKRSTGNIGSNYVSWYQHHEGRSPTTMIYRDDQRPDGVPDRFSGSIDRSSNSALLTIDNVQTEDEAAYFCHSYSTGMYIFGGGTKLTVL
In turn, B1 had a Kd in experiment [1] of 1.34 nM.

B2: 10D8 monoclonal antibody (antibody, V domains shown)
VH: EVMLVESGGDLVKPGGSLKVSCAASGFTFSNYAMSWVRQTPEKRLEWVATISSGASYTHYPDSVKGRFTISRDNAKNTLYLQMSSLRSEDTAMYYCGRQVNRHDRALDAMDYWGQGTSVTVSP
VL: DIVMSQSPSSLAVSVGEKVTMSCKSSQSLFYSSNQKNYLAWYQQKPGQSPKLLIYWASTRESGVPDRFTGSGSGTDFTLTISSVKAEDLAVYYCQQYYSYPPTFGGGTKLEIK
Turning to B2, the off-rate constant (koff) in experiment [2] was 0.0027 s⁻¹. In experiment [1], this molecule gave a Kd of 35.8 nM.

B3: 32F3 monoclonal antibody (antibody, V domains shown)
VH: DVKLVESGGGLVKLGGSLKLSCAASGFTFSSYYMSWVRQTPEKRLELVAAINNNGGSTYYPDTVKGRFTISRDNAKNTLNLQMNSLKSEDTALYYCTRQHYGNLYFFDYWGQGTTLTVSS
VL: QIVLSQSPAILSASPGEKVTMTCRASSSVTYIHWYQQKPGSSPKPWIQATSSLASGVPARFSGSGSGTSYSLSISRVEAEDAATYYCQQWSSNPLTFGAGTKLELK
The molecule B3 registered a koff in experiment [2] of 0.000121 s⁻¹. This molecule yielded a Kd in experiment [1] of 4.1 nM.
